This note sets out measurements from PMC4773810, “Novel small molecules targeting ciliary transport of Smoothened and oncogenic Hedgehog pathway activation” (Scientific Reports, 2016).

T1: human GPRASP2 (G protein-coupled receptor associated sorting protein 2), full length (human, UniProt Q96D09 1-838)
T1 construct: G protein-coupled receptor associated sorting protein 2 (GPRASP2), human, full length; also called hGPRASP2; full-length hGPRASP2; source: E. coli Rosetta2 (DE3), purified (IMAC, TEV protease, second IMAC, size exclusion chromatography)
T1 sequence (looked up): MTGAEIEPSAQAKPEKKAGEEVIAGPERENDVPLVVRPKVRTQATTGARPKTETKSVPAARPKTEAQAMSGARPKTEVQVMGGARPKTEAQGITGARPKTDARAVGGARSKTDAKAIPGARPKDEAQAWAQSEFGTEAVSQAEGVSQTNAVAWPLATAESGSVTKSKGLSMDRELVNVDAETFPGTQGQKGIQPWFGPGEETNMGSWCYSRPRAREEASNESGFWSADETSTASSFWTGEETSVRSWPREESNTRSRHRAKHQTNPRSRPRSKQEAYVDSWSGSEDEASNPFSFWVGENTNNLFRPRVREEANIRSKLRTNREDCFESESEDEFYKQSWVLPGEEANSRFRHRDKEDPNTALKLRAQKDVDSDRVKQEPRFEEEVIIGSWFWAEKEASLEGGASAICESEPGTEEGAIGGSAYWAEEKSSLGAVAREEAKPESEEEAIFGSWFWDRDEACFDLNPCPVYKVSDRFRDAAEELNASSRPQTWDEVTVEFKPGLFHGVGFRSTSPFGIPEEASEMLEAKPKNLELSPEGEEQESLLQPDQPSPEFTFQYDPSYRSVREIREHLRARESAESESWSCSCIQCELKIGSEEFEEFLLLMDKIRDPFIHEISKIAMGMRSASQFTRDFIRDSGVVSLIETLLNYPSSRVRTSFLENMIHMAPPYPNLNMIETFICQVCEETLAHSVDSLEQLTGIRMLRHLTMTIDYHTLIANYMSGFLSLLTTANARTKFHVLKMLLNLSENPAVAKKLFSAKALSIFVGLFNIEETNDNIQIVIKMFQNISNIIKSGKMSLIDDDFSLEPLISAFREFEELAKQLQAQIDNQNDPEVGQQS

B1: hSMOM2 (aa533-552-W535L) peptide (peptide, UniProt Q99835 533-552, looked up)
peptide: STLVWTKATLLIWRRTWCRL
notes: also called hSMOM2 peptide; peptide from human SMOM2; source: synthetic peptide (PSL GmbH)

This assay deals with T1, human GPRASP2 (G protein-coupled …). Put plainly: NMR titration; 1D 1H NMR (…) of 100 uM peptide before and after addition of hGPRASP2 to 0.78 uM; 600 MHz, 298 K; 50 mM sodium phosphate pH 8, 50 mM NaCl, 0.002% NaN3, 100 uM DTT, 90% H2O/10% D2O. The conditions noted are these: both partners purified.
On to KATLLIWRRTWCRL (peptide, UniProt Q99835 539-552, looked up, source: synthetic peptide (PSL GmbH)) [hSMO-WT (aa539-552) peptide], for which the binding result is on record as “binds”.
On to STWVWTKATLLIWRRTWCRL (peptide, UniProt Q99835 533-552, looked up, source: synthetic peptide (PSL GmbH)) [hSMO-WT (aa533-552) peptide], for which the binding result is “binds”.
For the molecule B1, the binding result was “binds”.
